Measurements as given in patent US20080213836.

T1: Pro-Phe-Arg-MCA
T1 chain: PFR

T2: Z-Phe-Arg-MCA
T2 chain: FR

T3: Gly-Asp-Asp-Asp-Asp-Lys-β-naphthylamide
T3 chain: GDDDDK

T4: Boc-Glu(OBzl)-Ala-Arg-MCA
T4 chain: EAR


Experiments:
Pro-Phe-Arg-MCA = target: T1, Pro-Phe-Arg-MCA
Z-Phe-Arg-MCA = target: T2, Z-Phe-Arg-MCA
[1] = target: T3, Gly-Asp-Asp-Asp-Asp-Lys-β-naphthylamide
[2] = target: recombinant fusion protein of Medaka trypsinogen
[3] = target: T4, Boc-Glu(OBzl)-Ala-Arg-MCA

| Protein | enzyme activity against wild-type (Pro-Phe-Arg-MCA) | enzyme activity against wild-type (Z-Phe-Arg-MCA) | enzyme activity against wild-type [1] | conversion of trypsinogen to active enzyme [2] | enzyme activity against wild-type [3] |
| --- | --- | --- | --- | --- | --- |
| Medaka EP-1 serine protease domain mutant K63A (protein) VVGGVNAEKGAWPWMVSLHWRGRHGCGASLIGRDWLLTAAHCVYGANTHLQYWSAVLGLHAQSSMNSQEVQIRQVDRIIINKNYNRRTKEADIAMMHLQQPVNFTEWVLPVCLASEDQHFPAGRRCFIAGWGRDAEGGSLPDILQEAEVPLVDQDECQRLLPEYTFTSSMLCAGYPEGGVDSCQGDSGGPLMCLEDARWTLIGVTSFGVGCGRPERPGAYARVSAFTSWIAETRRSSFSDLD | The same held true for all the other mutants except for F144A | The same held true for all the other mutants except for F144A | The same held true for all the other mutants except for F144A | A total of 12 mutants could convert the recombinant Medaka trypsinogen to its active enzyme (data not shown) | The same held true for all the other mutants except for F144A |
| Medaka EP-1 serine protease domain mutant K63E (protein) VVGGVNAEKGAWPWMVSLHWRGRHGCGASLIGRDWLLTAAHCVYGENTHLQYWSAVLGLHAQSSMNSQEVQIRQVDRIIINKNYNRRTKEADIAMMHLQQPVNFTEWVLPVCLASEDQHFPAGRRCFIAGWGRDAEGGSLPDILQEAEVPLVDQDECQRLLPEYTFTSSMLCAGYPEGGVDSCQGDSGGPLMCLEDARWTLIGVTSFGVGCGRPERPGAYARVSAFTSWIAETRRSSFSDLD | The same held true for all the other mutants except for F144A | The same held true for all the other mutants except for F144A | The same held true for all the other mutants except for F144A | A total of 12 mutants could convert the recombinant Medaka trypsinogen to its active enzyme (data not shown) | The same held true for all the other mutants except for F144A |
| Medaka EP-1 serine protease domain mutant F144A (protein) VVGGVNAEKGAWPWMVSLHWRGRHGCGASLIGRDWLLTAAHCVYGKNTHLQYWSAVLGLHAQSSMNSQEVQIRQVDRIIINKNYNRRTKEADIAMMHLQQPVNFTEWVLPVCLASEDQHFPAGRRCAIAGWGRDAEGGSLPDILQEAEVPLVDQDECQRLLPEYTFTSSMLCAGYPEGGVDSCQGDSGGPLMCLEDARWTLIGVTSFGVGCGRPERPGAYARVSAFTSWIAETRRSSFSDLD | hydrolyzed the GD4K-βNA as well as the three MCA-containing substrates at an elevated rate when compared with the wild-type enzyme | hydrolyzed the GD4K-βNA as well as the three MCA-containing substrates at an elevated rate when compared with the wild-type enzyme | hydrolyzed the GD4K-βNA as well as the three MCA-containing substrates at an elevated rate when compared with the wild-type enzyme | A total of 12 mutants could convert the recombinant Medaka trypsinogen to its active enzyme (data not shown) | hydrolyzed the GD4K-βNA as well as the three MCA-containing substrates at an elevated rate when compared with the wild-type enzyme |
| Medaka EP-1 serine protease domain mutant T105A (protein) VVGGVNAEKGAWPWMVSLHWRGRHGCGASLIGRDWLLTAAHCVYGKNTHLQYWSAVLGLHAQSSMNSQEVQIRQVDRIIINKNYNRRAKEADIAMMHLQQPVNFTEWVLPVCLASEDQHFPAGRRCFIAGWGRDAEGGSLPDILQEAEVPLVDQDECQRLLPEYTFTSSMLCAGYPEGGVDSCQGDSGGPLMCLEDARWTLIGVTSFGVGCGRPERPGAYARVSAFTSWIAETRRSSFSDLD | The same held true for all the other mutants except for F144A | The same held true for all the other mutants except for F144A | The same held true for all the other mutants except for F144A | A total of 12 mutants could convert the recombinant Medaka trypsinogen to its active enzyme (data not shown) | The same held true for all the other mutants except for F144A |
| Medaka EP-1 serine protease domain mutant T105R (protein) VVGGVNAEKGAWPWMVSLHWRGRHGCGASLIGRDWLLTAAHCVYGKNTHLQYWSAVLGLHAQSSMNSQEVQIRQVDRIIINKNYNRRRKEADIAMMHLQQPVNFTEWVLPVCLASEDQHFPAGRRCFIAGWGRDAEGGSLPDILQEAEVPLVDQDECQRLLPEYTFTSSMLCAGYPEGGVDSCQGDSGGPLMCLEDARWTLIGVTSFGVGCGRPERPGAYARVSAFTSWIAETRRSSFSDLD | The same held true for all the other mutants except for F144A | The same held true for all the other mutants except for F144A | The same held true for all the other mutants except for F144A | A total of 12 mutants could convert the recombinant Medaka trypsinogen to its active enzyme (data not shown) | The same held true for all the other mutants except for F144A |
| Medaka EP-1 serine protease domain mutant E173K (protein) VVGGVNAEKGAWPWMVSLHWRGRHGCGASLIGRDWLLTAAHCVYGKNTHLQYWSAVLGLHAQSSMNSQEVQIRQVDRIIINKNYNRRTKEADIAMMHLQQPVNFTEWVLPVCLASEDQHFPAGRRCFIAGWGRDAEGGSLPDILQEAEVPLVDQDKCQRLLPEYTFTSSMLCAGYPEGGVDSCQGDSGGPLMCLEDARWTLIGVTSFGVGCGRPERPGAYARVSAFTSWIAETRRSSFSDLD | consistently resulted in reduced enzyme activity for synthetic peptide substrates | consistently resulted in reduced enzyme activity for synthetic peptide substrates | consistently resulted in reduced enzyme activity for synthetic peptide substrates | A total of 12 mutants could convert the recombinant Medaka trypsinogen to its active enzyme (data not shown) | consistently resulted in reduced enzyme activity for synthetic peptide substrates |
| Medaka EP-1 serine protease domain mutant F144S (protein) VVGGVNAEKGAWPWMVSLHWRGRHGCGASLIGRDWLLTAAHCVYGKNTHLQYWSAVLGLHAQSSMNSQEVQIRQVDRIIINKNYNRRTKEADIAMMHLQQPVNFTEWVLPVCLASEDQHFPAGRRCSIAGWGRDAEGGSLPDILQEAEVPLVDQDECQRLLPEYTFTSSMLCAGYPEGGVDSCQGDSGGPLMCLEDARWTLIGVTSFGVGCGRPERPGAYARVSAFTSWIAETRRSSFSDLD | consistently resulted in reduced enzyme activity for synthetic peptide substrates | consistently resulted in reduced enzyme activity for synthetic peptide substrates | consistently resulted in reduced enzyme activity for synthetic peptide substrates | A total of 12 mutants could convert the recombinant Medaka trypsinogen to its active enzyme (data not shown) | consistently resulted in reduced enzyme activity for synthetic peptide substrates |
